From publication PMC4832279, “Characterisation of Shigella Spa33 and Thermotoga FliM/N reveals a new model for C‐ring assembly in T3SS” (Molecular Microbiology, 2015) come the findings set out here.

For data set [1], the target named is Spa33-FL(CTD) (construct comprising only SpoA1 and SpoA2 of Spa33-FL) (Shigella flexneri). The data set can be described thus: native MS; purified proteins or co-expressed, co-purified complexes, buffer-exchanged in 200 mM ammonium acetate pH 7.5; non-denaturing conditions; Synapt HDMS.
Data set [2] addresses Spa33-C (co-expressed from pRSFDuet-Spa33-C with Spa33-FL(CTD)) (Shigella flexneri) (UniProt P0A1K9). The description is as above.
Data set [3] concerns the target Spa33-C (expressed alone from pET28b-Spa33-C, tag removed, 15N-labelled) (Shigella flexneri) (UniProt P0A1K9). Described as above.
Data set [4] has as its target Spa33-FL expressed from pETDuet-Spa33ΔRBS (N-terminal His-tag) (Shigella flexneri) (UniProt P0A1K9). The description is as above.
Data set [5] deals with Spa33-Cmbp (Spa33-C with a C-terminal maltose binding protein fusion) (Shigella flexneri) (UniProt P0A1K9). The description is as above.
Data set [6] addresses Spa33-Cstrep (Spa33-C with an eight residue C-terminal Strep-tag) (Shigella flexneri) (UniProt P0A1K9). Described as above.
Data set [7] has as its target Spa33-Ctrx (Spa33-C with a C-terminal thioredoxin fusion) (Shigella flexneri) (UniProt P0A1K9). The description is as above.
In data set [8] the target is Spa33-FL/C2 (1:2 complex of His-Spa33-FL and Spa33-C) (Shigella flexneri) (UniProt P0A1K9). The description is as above.
Data set [9] deals with Spa33-FL/C2(Y221R) (1:2 complex with Y221R in Spa33-FL and in both copies of Spa33-C) (Shigella flexneri) (UniProt P0A1K9). Described as above.
The target of data set [10] is Spa33-FL/Cstrep2 (1:2 complex of Spa33-FL and Spa33-Cstrep) (Shigella flexneri) (UniProt P0A1K9). Described as above.
In data set [11] the target is Spa33-FL/Ctrx2 (1:2 complex of Spa33-FL and Spa33-Ctrx) (Shigella flexneri) (UniProt P0A1K9). Described as above.
Data set [12] addresses Thermotoga maritima FliM with an N-terminal His-tag (Thermotoga maritima) (UniProt Q9WZE6). The data set is described as above.
In data set [13] the target is Thermotoga maritima FliN (C-terminal 132 residues of FliY) (Thermotoga maritima). The data set is described as above.
Data set [14] deals with the molecule itself. The data set is described as above.
The target of data set [15] is T1, Spa33-FL (full-length Spa33 with an N-terminal His-tag) (Shigella flexneri, UniProt P0A1K9 1-293).
T1 construct: Spa33 (SctQ), Shigella flexneri, full length; 293 residues by the printed range 192-293 at the extreme C-terminus; also called SctQ; His-Spa33-FL; source: E. coli B834 (DE3), from pET28b-Spa33, purified with Spa33-C (Ni-NTA, SEC)
T1 sequence: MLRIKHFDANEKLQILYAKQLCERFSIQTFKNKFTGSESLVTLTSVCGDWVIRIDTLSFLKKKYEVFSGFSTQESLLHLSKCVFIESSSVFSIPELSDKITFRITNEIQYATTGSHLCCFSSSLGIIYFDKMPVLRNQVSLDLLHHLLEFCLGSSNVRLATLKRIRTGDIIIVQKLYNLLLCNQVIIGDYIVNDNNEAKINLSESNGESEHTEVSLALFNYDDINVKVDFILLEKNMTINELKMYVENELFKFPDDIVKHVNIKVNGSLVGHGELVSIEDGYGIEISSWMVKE
The data set is described as above. As to conditions: both partners purified.

Data set [16] concerns the target T2, Spa33-FL(Y221R) with an N-terminal His-tag (Shigella flexneri, UniProt P0A1K9 1-293, Y221R).
T2 construct: Spa33 (SctQ), Shigella flexneri, full length, Y221R in the SpoA2 domain; also called Spa33-FL of Spa33-FL/C2(Y221R); source: E. coli B834 (DE3), from pET28b-Spa33(Y221R), purified with Spa33-C(Y221R) (Ni-NTA, SEC)
T2 sequence: T1 sequence with Y221R
The data set is described as above. As to conditions: both partners purified.

Data set [17] deals with the molecule itself. The data set can be described thus: crystal structure; 2.3 Å; 10 mg/ml Spa33 208-293, 21°C, sitting drop, 10% isopropanol, 0.1 M Na HEPES pH 7.0, 10% PEG 4000.

Where a chain is given by its changes, count along the chain named. Numbers in names are those of the source. Where “and” joins values, the source holds several entries; their conditions need not be identical. Identical values can stand only once.

Sequence of Thermotoga maritima FliM with an N-terminal His-tag (Thermotoga maritima) (Q9WZE6 whole entry): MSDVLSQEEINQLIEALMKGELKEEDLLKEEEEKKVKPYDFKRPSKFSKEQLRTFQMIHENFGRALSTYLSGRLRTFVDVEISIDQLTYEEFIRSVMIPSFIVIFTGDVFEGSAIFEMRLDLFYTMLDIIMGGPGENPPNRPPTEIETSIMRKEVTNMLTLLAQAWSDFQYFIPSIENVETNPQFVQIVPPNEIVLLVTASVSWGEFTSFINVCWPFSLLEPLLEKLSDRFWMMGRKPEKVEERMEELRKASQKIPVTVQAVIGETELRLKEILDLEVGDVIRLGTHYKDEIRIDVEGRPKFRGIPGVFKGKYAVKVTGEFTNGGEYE

The stoichiometry N is the number of molecules, sites or subunits per partner or assembly. In the case of “Spa33-C (co-expressed from pRSFDuet-Spa33-C with Spa33-FL(CTD)) (from UniProt P0A1K9 192-293) (domain or fragment)”, the stoichiometry N in data set [1] and in data set [2] was 2 in each case. “Spa33-C (expressed alone from pET28b-Spa33-C, tag removed, 15N-labelled) (from UniProt P0A1K9 192-293) (domain or fragment)” returned a stoichiometry N in data set [3] of 2.

For “Spa33-Cmbp (Spa33-C with a C-terminal maltose binding protein fusion) (from UniProt P0A1K9 192-293) (domain or fragment)”, the stoichiometry N in data set [4] and in data set [5] was 2 in each case. For the molecule “Spa33-Cstrep (Spa33-C with an eight residue C-terminal Strep-tag) (from UniProt P0A1K9 192-293) (domain or fragment)”, the stoichiometry N in data set [4] and in [6] was 2 each time. Take “Spa33-Ctrx (Spa33-C with a C-terminal thioredoxin fusion) (from UniProt P0A1K9 192-293) (domain or fragment)”: the stoichiometry N in data set [7] and in data set [4] was 2 each time. Turning to “Spa33-FL(CTD) (construct comprising only SpoA1 and SpoA2 of Spa33-FL) (domain or fragment)”, the stoichiometry N in data set [1] was 2 and 3. “Spa33-FL/C2 (1:2 complex of His-Spa33-FL and Spa33-C) (from UniProt P0A1K9 1-293; P0A1K9 192-293)”: the stoichiometry N in data set [8] was 2 and 4 and 6.

Consider “Spa33-FL/C2(Y221R) (1:2 complex with Y221R in Spa33-FL and in both copies of Spa33-C) (from UniProt P0A1K9 1-293; P0A1K9 192-293)”, for which the stoichiometry N in [9] was 2. In the case of “Spa33-FL/Cstrep2 (1:2 complex of Spa33-FL and Spa33-Cstrep) (from UniProt P0A1K9 1-293; P0A1K9 192-293)”, in data set [10], the stoichiometry N was 2 and 4. “Spa33-FL/Ctrx2 (1:2 complex of Spa33-FL and Spa33-Ctrx) (from UniProt P0A1K9 1-293; P0A1K9 192-293)” had a stoichiometry N in data set [11] of 2. Take “Thermotoga maritima FliN (C-terminal 132 residues of FliY) (domain or fragment)”: the stoichiometry N in [12] is 3; in data set [13], 2.

For “Thermotoga maritima FliY, full length (natural protein)”, in data set [12], the stoichiometry N worked out at 1.

B1: Spa33-C (alternative translation product of spa33, residues 192-293) (domain or fragment)
chain: MNDNNEAKINLSESNGESEHTEVSLALFNYDDINVKVDFILLEKNMTINELKMYVENELFKFPDDIVKHVNIKVNGSLVGHGELVSIEDGYGIEISSWMVKE
modifications: formylmethionine at the N-terminus (expected from the measured mass)
notes: Spa33 (SctQ), Shigella flexneri, residues 192-293; translated from an internal GTG start codon; Forms a homodimer (Spa33-C2) in the native mass spectrum; also called short variant of Spa33; source: E. coli B834 (DE3), made from the internal start site of pET28b-Spa33, co-purified with His-Spa33-FL (Ni-NTA, SEC)
As to B1, the “stoichiometry N” value in [14] and in [15] was 2 in each case.

B2: Spa33-C(Y221R) (domain or fragment)
chain: B1 chain with Y30R
modifications: formylmethionine at the N-terminus (as told for wild-type Spa33-C)
notes: Spa33 (SctQ), Shigella flexneri, residues 192-293 (Spa33-C), Y221R; also called Spa33-C of Spa33-FL/C2(Y221R)
As for B2, the “stoichiometry N” value in data set [16] was found to be 2.

B3: Spa33 208-293 (C-terminal 86 residues of Spa33) (domain or fragment)
chain: ESEHTEVSLALFNYDDINVKVDFILLEKNMTINELKMYVENELFKFPDDIVKHVNIKVNGSLVGHGELVSIEDGYGIEISSWMVKE
notes: Spa33 (SctQ), Shigella flexneri, residues 208-293; Two copies of the dimer in the asymmetric unit; also called SpoA2 domain of Spa33; source: E. coli B834 (DE3), purified (Ni-NTA, carboxypeptidase A, SEC); not shown: His tag, C-terminal, cleaved
With B3, the binding result in [17] is listed as “binds”.
